The supplement of paper PMC9170038

Tested on: MS2 coat protein
Assay: apparent KD of MS2 coat protein; designed switch direction (-1 OFF switch, 1 ON switch): -1; higher = weaker reporter binding
How it was run: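 Transcription of designed RNA switches on Illumina chips was done by stalled E. coli RNA polymerase. SNAP-549-labelled MS2 coat protein was then titrated in doubling steps from 0.7 or 1.5 nM to 3 µM, with steps of 0.8–1.5 h at the lowest and 10–20 min at the highest concentration. The per-design median over clusters of curve-fitted normalised fluorescence is reported as apparent KD.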

[1] = input ligand: microRNA oligo, concentration not stated
[2] = Eterna round: R95, input ligand: FMN 200 uM
[3] = Eterna round: R95, input ligand: microRNA oligo, concentration not stated
[4] = Eterna round: R95, input ligand: none

Sequence	apparent KD of MS2 coat protein (input ligand: FMN 200 uM) [nM]	apparent KD of MS2 coat protein (input ligand: none) [nM]	apparent KD of MS2 coat protein [1] [nM]	apparent KD of MS2 coat protein [2] [nM]	apparent KD of MS2 coat protein [3] [nM]	apparent KD of MS2 coat protein [4] [nM]
UUUACAAGCUUAAGAUCCCACAUGAGGAUCACCCAUGUUGCUGCCGUGAGGUAGCUUUUAACUUAUGCUCGUCUUAU [JL TOV1 3.42] (Eterna round: R97, puzzle: Sensor, turn-off variant 1)	94	110	–	–	–	–
UGUUGUCGCGUAGGAUAUGAGGAUCACCCAUAGAAGGAUAUCGAAAGAGAAGGUCUGAGGAUUACCCAGAAGGACGGGACAACU [pwkr exNG2 2xF5 2xFMN.14] (Eterna round: R96, puzzle: Exclusion NG 2)	682	151	160	–	–	–
GUUAACGUAGGAUAUUAGUACAUGCACAUGAGGAUCACCCAUGUUUAGUGGGUCUAGGAAUAAGAAGGGCGAUGAA [EX5 #22] (Eterna round: R97, puzzle: Exclusion 5)	472	567	–	–	–	–
UUUACAAGCUAAUGAUCCCACAUGAGGAUCACCCAUGUUGCUGCCGGUGACGGUAGCAUAACAUUUGCUCGUCUUAU [JL TOV1 3.58] (Eterna round: R97, puzzle: Sensor, turn-off variant 1)	1180	1010	–	–	–	–
UGGCCACAUGAGGAUCACCCAUGUCAGGAUAUCGGAUAUAUUGUGGUUUUAAGACCAACGAGAAGGGACGGGUC [Eternabot (L1) Solution 9] (Eterna round: R97, puzzle: Exclusion 1)	119	139	–	–	–	–
CAUACUAAAGUCAGGAUAUGCGGUCGAAUACGGGCGUAGAAGGGACAUGAGGAUCACCCAUGUAGAUAGUAAAG [EX-4 Malc #19] (puzzle: Brourd's mod of Exclusion 4)	–	–	–	15.3	13.6	15.7
CUUGUGUUAGGAUAUGUUAAGCCGCCACCUGGCGGAUCAGGACAGAAGGAACAUGAGGAUCACCCAUGUAAAAG [Inenxele] (Eterna round: R97, puzzle: Exclusion 4)	55.1	105	–	–	–	–
GAUCAUGCAGGAUAUACAUGUUCCAUGAAAACAUGGUCCUCACAUGAGGAUCACCCAUGUAGAAGGGCAUGAUC [Omei Ex2 A31] (Eterna round: R97, puzzle: Exclusion 2)	132	1450	–	–	–	–
ACCGUGUAAGGAUAUCGAGGCCGAGGAAGUCGCAUGGCCUGUGAGAAGGUACAUGAGGAUCACCCAUGUCCCAU [Eternabot (L2) Solution 6] (Eterna round: R97, puzzle: Exclusion 4)	28.7	27.6	–	–	–	–
CUUUUGUGAGGAUAUGGUCUCGAUGACAUGAGGAUCACCCAUGUAACAUGGGACUUGUGACUAGAAGGCACUAACG [JR_Ex5_Sub024] (Eterna round: R97, puzzle: Exclusion 5)	22.6	16.4	–	–	–	–
UUUGCAAGCUAAAGAUCCCACAUGAGGAUCACCCAUGUUGCUGCCGUGAGGUAGCUUUUAACUUUUGCUCGUCUUAU [JL TOV1 3.44] (Eterna round: R97, puzzle: Sensor, turn-off variant 1)	183	217	–	–	–	–
GUUAAGGUAGGAUAUACGAUAAGAUAGGGUAGAUAUAUAACACAUGAGGAUCACCCAUGUAGAAGGACCAAUUG [Mat - Exclusion 2 - Mod of my Tesla design - D56] (puzzle: Exclusion 2)	–	–	–	–	29.2	–
UGAAUGUCAGAGGAUAUGCACGAUUGGACCGAGGCAGAAGGCUGAACAUGAGGAUCACCCAUGUCAAGAUCUUC [Eternabot (L1) Solution 93] (Eterna round: R97, puzzle: Exclusion 6)	180	26.3	–	–	–	–
AAAUACAAGCAAAGAUCCUACAUGAGGAUCACCCAUGUGCUCGUCUUGUAAAGUACUAUCACGAAAGUGAUAGUACA [Sensor 3, v1 - 16] (puzzle: Sensor v3, turn-off variant 1)	–	–	–	51.9	27.5	70.2
AGCCUACAUGAGGAUCACCCAUGUCAGGAUAUCUCGCGGCGCGUCAAGUUCACGCCGCAGAGAAGGGACUCGGG [Ceusxeatis] (puzzle: Exclusion 1)	–	–	–	–	37.6	–
GAUUAUGCGAGCUUUAGGGACAUGAGGAUCACCCAUGUUCGUCUUGUUGAUCUAGGUACACUAACAUACCUAAAUCU [JMF 16] (puzzle: Sensor v3, turn-off variant 1)	–	–	–	19.9	28.5	21.9

Sequence	apparent KD of MS2 coat protein (input ligand: FMN 200 uM) [nM]	apparent KD of MS2 coat protein (input ligand: none) [nM]	apparent KD of MS2 coat protein [1] [nM]	apparent KD of MS2 coat protein [2] [nM]	apparent KD of MS2 coat protein [3] [nM]	apparent KD of MS2 coat protein [4] [nM]
GAUUGACAUGAGGAUCACCCAUGUGAGGAUAUCGGCCGGACCUUGUUAGCUUCCGUCGCGAGAAGGCGCAUAGG [Exclusion 1 V37] (puzzle: Exclusion 1)	–	–	–	62.6	39.9	33.2
GUAUCGUGAGGAUAUCAUGAUUGACUUAGUUUAUGUCAGCGUGAGAAGGCACAUGAGGAUCACCCAUGUGAUUA [Ex4 - 3 - 7] (puzzle: Exclusion 4)	–	–	–	–	23.1	–
ACAUGUAAUGCAGGAUAUGGGACACAUGAGGAUCACCCAUGUUACCAUAUGUAAUGCUAAGAGUCUCAGAAGGGUAUGUACAUG [Ex NG2 #47] (Eterna round: R96, puzzle: Exclusion NG 2)	8.6	15.6	12.2	–	–	–
UUAAAUCAUGUAGGAUAUGCGUGGAGAAACUAUGCAGAAGGACAUGAGGAUCACCCAUGUGCUUCCGUCUGCGUACAGAUGGUA [Mat - Exclusion NG 1 - Mod of JL - D8] (Eterna round: R96, puzzle: Exclusion NG 1)	–	–	21.1	–	–	–
GAUUAUGCGAGCUUUAGGGACAUGAGGAUCACCCAUGUUCGUCUUAUUGAUCUAAGUGCACUAACAUACCUAAAUCU [JMF 29] (puzzle: Sensor v3, turn-off variant 1)	–	–	–	25.1	53.7	27
GACCCUAGGGUCAGACGCACAAGCUUUUUGCUCGUUUUAACAUGAGGAUCACCCAUGUCUAGUGGAUCUGAUCGGGC [Ongege] (puzzle: Sensor v3, turn-off variant 2)	–	–	–	26.3	151	29.5
GGAGGACGAGCAGGAUAUUUUCACAUGAGGAUCACCCAUGUGUACUCAGGGUAAUCCUCCGCCGAAAAGAAGGGUUCGGAAGAA [JL ViennaUCT Socedi mod 1] (Eterna round: R96, puzzle: Exclusion NG 2)	46.7	50.8	33.2	–	–	–
AAAUACAGGUAAAGAUUCUACAUGAGGAUCACCCAUGUGCUCGUCUUAUAAAGUACUAUCACGAAAGUGAUAGUACA [Sensor 3, v1 - 40] (puzzle: Sensor v3, turn-off variant 1)	–	–	–	25.9	169	21.6
CCGGAUUAGUAGGAUAUAGGAGUCGAUAGACACCUAGAAGGACUAACAUGAGGAUCACCCAUGUGUCCUACCGG [Mod of Eli 19 - Jieux - Exclusion 6] (Eterna round: R97, puzzle: Exclusion 6)	39	16.7	–	–	–	–
AAACGGUAAGGAUAUCGGGCAACGGACAUGAGGAUCACCCAUGUGAACCUGCGUAUCCUCCGAGAAGGUACAAAAG [Diinbibe] (Eterna round: R97, puzzle: Exclusion 5)	20	10.9	–	–	–	–
UAUUAAACAAGCAGGUCCCACAUGAGGAUCACCCAUGUGCUCGUCUUAUAAGGUACUGUGACGAAAGUCACGGUACC [Elimod 16 - Jieux - Sensor, turn-off variant 1] (Eterna round: R97, puzzle: Sensor, turn-off variant 1)	37.2	40.1	–	–	–	–
AGAUGGCGAGGAUAUACAUGAGGAUCACCCAUGUGAAGAUAAAGAGUGAGGAAGAAAAGUAGAAGGCGCUGUCA [Mat - Exclusion 3 - Mod of Salish D28] (Eterna round: R96, puzzle: Exclusion 3)	–	–	103	–	–	–
AAAACGUCAGGAUAUCCAAUAUAUGACAUGAGGAUCACCCAUGUUUCCACUCGUACCUCCGGAGAAGGGACUUAUA [Ex5 #83] (Eterna round: R97, puzzle: Exclusion 5)	43.9	46.2	–	–	–	–
CCUGCACAUGAGGAUCACCCAUGUCAGGAUAUCUCGCCGUGAAGAGCAACACGGUAUUAGAGAAGGGACACGGG [Tixe] (puzzle: Exclusion 1)	–	–	–	–	20.7	–
AUAAAUCAUGUAGGAUAUGCGUGGCGAAGCUAUGCAGAAGGACAUGAGGAUCACCCAUGUGCUUGCGUCUGCGUACAGAUGCUA [Mat - Exclusion NG 1 - Mod of JL - D5] (Eterna round: R96, puzzle: Exclusion NG 1)	330	51.7	37.7	–	–	–
